# Results from paper doi:10.1101/559120.
# Target: branched-chain amino acid aminotransferase from Pseudomonas sp. (Pseudomonas sp.)
# Assay: crystal structure
substance,measurement,value
branched-chain amino acid aminotransferase from Pseudomonas sp. (enzyme),stoichiometry N,2
